Assays:
[1] = tested on: nuclei of Xenopus XTC-2 cells; test: Biochemical complementation assay: release of TBP from nuclei by purified proteins combined with SP Sepharose flow through (FT); conditions: for reconstitution of release of TBP from nuclei: combined with SP Sepharose FT in the presence of ERS, FIG. 4D
Description: (§1) “Extract” refers to unfractionated egg extract. […] The gel was stained with Coomassie Blue. FIG. 4C depicts ATPase activity of ISWI-D and rISWI. ATPase activity was determined in the presence of buffer (−), DNA (D), or nucleosomes (N). The arrowhead indicates the free phosphate generated by ATP hydrolysis. FIG. 4D depicts biochemical complementation assays for activities capable of removing TBP from the nucleus. Egg extract (Ext), SP Sepharose flow through (FT), and FT complemented with various purified proteins at indicated concentrations were compared for remodeling activity by monitoring residual TBP in the nuclear pellet after incubation of nuclei in an egg extract. All lanes included ERS except lanes 7 and 8, which contained apyrase. Np indicates nucleoplasmin.
(§2) The ISWI-D complex was purified from Xenopus egg extract (FIG. 4A), and shown to contain two subunits: p195 and ISWI (FIG. 4B). For the purification, egg extract was fractionated through BioRex 70 (Bio-Rad, Hercules, Calif.) and MonoQ (Amersham Pharmacia, Piscataway, N.J.) essentially as described in Wade et al. (1998) Curr Biol 8:843–846. The MonoQ ISWI-D peak (eluting at approximately 0.45 M NaCl) was further purified by gradient elution on MonoS (linear gradient from 0.1 to 0.5 M NaCl in Buffer A) as described in Wade et al., supra. ISWI-D was eluted at approximately 0.3 M NaCl. Drosophila rISWI was produced in E. coli and purified by IMPACT T7 system (New England Biolabs, Beverly, Mass.) and Superdex 200 gel filtration column (Amersham Pharmacia). ATPase activity was tested as described in Corona et al, supra.
Either ISWI-D complex or rISWI were essential for release of TBP from nuclei. The endogenous activity in the extract responsible for the release of TBP from chromatin was depleted by applying the extract to SP Sepharose, and restored by combining the SP Sepharaose flow through (FT) and the 0.5 M NaCl eluate from BioRex 70 that contained ISWI (FIG. 4D, lanes 2 and 3). FT was prepared from SP Sepharose (Amersham Pharmacia) by equilibrating the resin with Buffer A and briefly centrifuging to deplete the buffer. The egg extract was incubated with the equilibrated resin for 30 minutes in a cold room and briefly centrifuged to collect FT. […] Release of TBP from nuclei by ISWI plus FT was also confirmed by immunofluorescence.
Three other proteins known to modify protein-DNA interactions (TAF172, the Mi-2 complex and nucleoplasmin) were also tested in this biochemical complementation assay. Recombinant human TAF172 was prepared in a baculovirus expression system (see Chicca et al. (1998) Mol Cell Biol 18:1701–1710), while the Mi-2 complex and nucleoplasmin were isolated from Xenopus egg extracts. TAF 172, the human homologue of yeast Mot1, also belongs to the SWI2/SNF2 superfamily and removes TBP from DNA in vitro (Auble et al. (1994) Genes Dev 8:1920–1934; Chicca et al., supra). The Xenopus Mi-2 complex contains Mi-2, also a member of the SWI2/SNF2 superfamily, in addition to five other subunits and remodels chromatin (Wade et al (1998) Curr Biol 8:843–846; Guschin et al. (2000) Biochem 39:5238–5245). Nucleoplasmin remodels sperm chromatin upon fertilization (Dimitrov et al., supra; Philpott et al. (2000) Cell 69:759767). […] Higher concentrations of these proteins were also tested, with similar results.

[2] = tested on: nuclei of Xenopus XTC-2 cells; test: Nuclear remodeling assay: permeabilized somatic nuclei incubated in Xenopus egg S phase extract, TBP in nuclear pellet by immunoblot; format: biochemical; conditions: agent added to nuclear remodeling reaction in egg extract; immunoblot FIG. 1A
Description: To simplify nuclear remodeling assays by eliminating nuclear transport steps, both the plasma membrane and nuclear envelope of Xenopus XTC-2 cells (henceforth called nuclei) were permeabilized with a detergent, essentially as described in Adam et al. (1992) Methods Enzymol. […] Xenopus XTC-2 cells were permeabilized with 30 μg/ml digitonin for three minutes using the LL-Bsa method (Gurdon (1976) J. Embryol. Exp. Morphol. 36:5235407) replacing lysolecithin (which caused tight aggregation of nuclei) by digitonin. […] The permeability of the nuclear envelope was monitored by the passive entry of fluorescence-labeled immunoglobulin G (150k Da) into the nuclei (Newmeyer et al. (1986) J Cell Biol 103:2091–2102). […]
After incubation for two hours at room temperature 100 μl of Buffer B (10 mM HEPES pH 7.8, 75 mM KCl, 4 mM magnesium chloride, 250 mM sucrose, 0.5 mM spermidine trihydrochloride, 0.15 mM spermine tetrahydrochloride, 1 mM dithiothreitol, 10 mM β-glycerophosphate, 1 μg/ml leupeptin, 2 μg/ml pepstatin A, 100 μM 4-(2-aminoethyl)-benzenesulfonyl fluoride, AEBSF) was added and the reaction mix was centrifuged at 15,000× g for 10 min. The pellet, called remodeled nuclei, was analyzed by immunoblotting using SuperSignal West Dura (Pierce, Rockford, Ill.) as a substrate of horseradish peroxidase.

[3] = tested on: nuclear matrix; test: Release of TBP from purified nuclear matrix, immunoblot; format: biochemical, Xenopus; conditions: presence of ERS; ISWI-D or rISWI added to the FT fraction; FIG. 5
Description: Analysis of histone H2B is shown as a control. Nuclear matrix was prepared as described in the Examples, and nuclear matrix proteins were separated by gel electorphoresis. Each lane contained matrix from 4×10^5 nuclei. The gel was blotted, and the blots were analyzed with antibodies to TBP or H2B. Nuclei were incubated with egg extract (lanes 2 and 3) or various combinations of proteins and protein fractions (lanes 4–8) prior to preparation of nuclear matrix. Analysis of a preparation of nuclear matrix from nuclei that were not incubated with extract or proteins is shown in lane 1. Presence or absence of an ERS in the incubation is indicated by “+” and “−,” respectively.
To understand the mechanism of the release of TBP further, nuclear matrix was prepared from the nuclei that had not been incubated in the egg extract, by using 0.5% Triton X-100, DNase I, 250 mM ammonium sulfate, and 2M NaCl. The nuclear matrix was prepared essentially as described D. L. Spector and D. Goldman, L. L. A, in Cells, A Laboratory Manual. (Cold Spring Harbor Laboratory Press, New York, 1997) pp. 44.1–44.8. […]
The purified nuclear matrix was incubated in the egg extract and its composition was analyzed by immunoblotting.

[4] = tested on: nucleosomes; test: ATPase activity in the presence of buffer, DNA or nucleosomes; format: biochemical; conditions: FIG. 4C
Description: as §1
as §2, with “Drosophila rISWI was produced in E. coli and purified by IMPACT T7 system (New England Biolabs, Beverly, Mass.) and Superdex 200 gel filtration column (Amersham Pharmacia). ATPase activity was tested as described in Corona et al, supra.” left out

Row | Molecule | reconstitution of release of TBP from nuclei [1] | effect on exclusion (loss) of TBP from nuclei in egg extract [2] | further results
1 | TAF172: recombinant human TAF172, homologue of yeast Mot1, prepared in a baculovirus expression system | None of these proteins proved capable of reconstituting TBP removal activity | – | –
2 | aphidicholin | – | neither aphidicholin nor arabinosylcytosine (both inhibitors of DNA replication) inhibited the loss of TBP | –
3 | apyrase | – | exclusion was inhibited | –
4 | nucleoplasmin: molecular chaperone isolated from Xenopus egg extracts; remodels sperm chromatin | None of these proteins proved capable of reconstituting TBP removal activity | – | –
5 | rISWI: recombinant Drosophila ISWI produced in E. coli (protein, UniProt Q24368 1-1027, looked up) Chromatin-remodeling complex …: MSKTDTAAVEATEENSNETTSDAATSSSGEKEAEFDNKIEADRSRRFDFLLKQTEIFTHFMTNSAKSPTKPKGRPKKIKDKDKEKDVADHRHRKTEQEEDEELLAEDSATKEIFRFDASPAYIKSGEMRDYQIRGLNWMISLYENGINGILADEMGLGKTLQTISLLGYLKHFKNQAGPHIVIVPKSTLQNWVNEFKKWCPSLRAVCLIGDQDTRNTFIRDVLMPGEWDVCVTSYEMCIREKSVFKKFNWRYLVIDEAHRIKNEKSKLSEILREFKTANRLLITGTPLQNNLHELWALLNFLLPDVFNSSEDFDEWFNTNTCLGDDALITRLHAVLKPFLLRRLKAEVEKRLKPKKEMKIFVGLSKMQRDWYTKVLLKDIDVVNGAGKVEKMRLQNILMQLRKCTNHPYLFDGAEPGPPYTTDTHLVYNSGKMAILDKLLPKLQEQGSRVLIFSQMTRMLDILEDYCHWRNYNYCRLDGQTPHEDRNRQIQEFNMDNSAKFLFMLSTRAGGLGINLATADVVIIYDSDWNPQMDLQAMDRAHRIGQKKQVRVFRLITESTVEEKIVERAEVKLRLDKMVIQGGRLVDNRSNQLNKDEMLNIIRFGANQVFSSKETDITDEDIDVILERGEAKTAEQKAALDSLGESSLRTFTMDTNGEAGTSSVYQFEGEDWREKQKLNALGNWIEPPKRERKANYAVDAYFREALRVSEPKAPKAPRPPKQPIVQDFQFFPPRLFELLDQEIYYFRKTVGYKVPKNTELGSDATKVQREEQRKIDEAEPLTEEEIQEKENLLSQGFTAWTKRDFNQFIKANEKYGRDDIDNIAKDVEGKTPEEVIEYNAVFWERCTELQDIERIMGQIERGEGKIQRRLSIKKALDQKMSRYRAPFHQLRLQYGNNKGKNYTEIEDRFLVCMLHKLGFDKENVYEELRAAIRASPQFRFDWFIKSRTALELQRRCNTLITLIERENIELEEKERAEKKKKAPKGSVSAGSGSASSNTPAPAPQPKASQKRKSEVVATSSNSKKKKK | competent to reconstitute release of TBP from nuclei | – | release of TBP from the nuclear matrix [3]: resulted in release of TBP; release of TBP from nuclei in combination with nucleoplasmin ([1]; nucleoplasmin substituted for the FT fraction): incapable of releasing TBP from nuclei; release of TBP from nuclei in the absence of FT ([1]; without FT fraction): Neither the ISWI-D complex nor rISWI could release TBP from nuclei
6 | mutant of rISWI: rISWI in which lysine 159 in the adenine nucleotide binding domain was replaced with arginine; negative control (protein, UniProt Q24368 1-1027, looked up, variant K159R) Chromatin-remodeling complex …: MSKTDTAAVEATEENSNETTSDAATSSSGEKEAEFDNKIEADRSRRFDFLLKQTEIFTHFMTNSAKSPTKPKGRPKKIKDKDKEKDVADHRHRKTEQEEDEELLAEDSATKEIFRFDASPAYIKSGEMRDYQIRGLNWMISLYENGINGILADEMGLGRTLQTISLLGYLKHFKNQAGPHIVIVPKSTLQNWVNEFKKWCPSLRAVCLIGDQDTRNTFIRDVLMPGEWDVCVTSYEMCIREKSVFKKFNWRYLVIDEAHRIKNEKSKLSEILREFKTANRLLITGTPLQNNLHELWALLNFLLPDVFNSSEDFDEWFNTNTCLGDDALITRLHAVLKPFLLRRLKAEVEKRLKPKKEMKIFVGLSKMQRDWYTKVLLKDIDVVNGAGKVEKMRLQNILMQLRKCTNHPYLFDGAEPGPPYTTDTHLVYNSGKMAILDKLLPKLQEQGSRVLIFSQMTRMLDILEDYCHWRNYNYCRLDGQTPHEDRNRQIQEFNMDNSAKFLFMLSTRAGGLGINLATADVVIIYDSDWNPQMDLQAMDRAHRIGQKKQVRVFRLITESTVEEKIVERAEVKLRLDKMVIQGGRLVDNRSNQLNKDEMLNIIRFGANQVFSSKETDITDEDIDVILERGEAKTAEQKAALDSLGESSLRTFTMDTNGEAGTSSVYQFEGEDWREKQKLNALGNWIEPPKRERKANYAVDAYFREALRVSEPKAPKAPRPPKQPIVQDFQFFPPRLFELLDQEIYYFRKTVGYKVPKNTELGSDATKVQREEQRKIDEAEPLTEEEIQEKENLLSQGFTAWTKRDFNQFIKANEKYGRDDIDNIAKDVEGKTPEEVIEYNAVFWERCTELQDIERIMGQIERGEGKIQRRLSIKKALDQKMSRYRAPFHQLRLQYGNNKGKNYTEIEDRFLVCMLHKLGFDKENVYEELRAAIRASPQFRFDWFIKSRTALELQRRCNTLITLIERENIELEEKERAEKKKKAPKGSVSAGSGSASSNTPAPAPQPKASQKRKSEVVATSSNSKKKKK | not competent to reconstitute release of TBP from nuclei | – | nucleosomal ATPase activity [4]: lacked nucleosomal ATPase activity

Source: US7053264B2, “Nuclear reprogramming using IWSI and related chromatin remodeling ATPases” (Sangamo Biosciences, Inc., priority 2000, dated 2006)
